Experimental findings from patent US20210380707A1 (published 2021) are described below.

Experiment [1] concerns the target T1, human CD70 (human, UniProt P32970 1-193).
T1 construct: Endogenous CD70 in FFPE cells and tissue sections, detected by IHC; also called CD70 antigen
T1 sequence: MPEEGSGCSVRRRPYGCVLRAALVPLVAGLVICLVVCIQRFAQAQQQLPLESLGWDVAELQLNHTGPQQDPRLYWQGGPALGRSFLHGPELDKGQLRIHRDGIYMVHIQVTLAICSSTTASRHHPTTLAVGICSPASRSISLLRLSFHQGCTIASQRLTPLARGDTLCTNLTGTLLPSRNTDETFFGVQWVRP
Put plainly: IHC Leica BOND, ER2, FFPE ACHN cells, 5 µg/mL. As for the experimental part: (§1) The following IHC evaluation was performed using a Leica BOND™ RX autostainer and BOND™ Polymer Refine Detection kit. These antibodies were tested at 5 μg/mL or 8 μg/mL concentration on a panel of CD70 positive cell line controls and a renal clear cell carcinoma tissue microarray (RCC TMA). All incubation steps were performed at room temperature with wash cycles in between each step unless otherwise stated. Briefly, pretreatment of FFPE slides was performed using the Bake and Dewax function. It was followed by a HIER step with Epitope Retrieval solution 2 (ER2) for 20 minutes at 100° C. Next, tissues were incubated with primary antibody for 60 minutes, followed by incubation with post primary and then polymer reagents for 15 minutes each. The antibody-antigen binding was visualized by brown DAB Refine stain for 10 minutes and counter-stained blue with Hematoxylin for 5 minutes. […] Upon completion of IHC staining experiment, stained tissues were scan using a Pannoramic MIDI II brightfield whole slide scanner and staining was visualized using CaseViewer software.

Experiment [2] has as its target T1, human CD70. The experiment can be described thus: IHC Leica BOND, ER2, FFPE ACHN cells, 8 µg/mL. As for the experimental part: as §1
Experiment [3] addresses T1, human CD70. Put plainly: IHC Leica BOND, ER2, FFPE HH cells, 5 µg/mL. On the procedure:
as §1

B1: 4E6G9 (antibody, V domains shown)
VH: QIQLVQSGPELKKAGETVKISCKASGYTFAAYSMHWVKQAPGKGLKWMGWINTETGEPTYADDFKGRFAFSLETSASTAYLQINNLKNEDTATYFCTRDDYDGGRFSYWYFAVWGAGTTVTVSS
VL: DIQMTQSPSSLSASLGGKVTITCKASQDINKYIAWYQHRPGKGPRLLIRYTSTLQPGIPSRFSGSGSGRDYSFSINNLEPEDIATYYCLQYDNLLTFGGGTKLEIK
notes: Mouse IgG1, Kappa; Only variable domains are printed; also called 4E6G9 antibody (Ms IgG1, kappa); recombinant antibody 4E6G9
Regarding B1, in the experiment with human CD70 [1], the binding result was “binds”.

B2: 11G12B6 (antibody, V domains shown)
VH: QVTLKESGPGILKPSQTLSLTCSFSGFSLSTSGLAVGWIRQPSGKGLEWLSHIWWNDDKYYNPSLKNQLTISKDTSRNQVFLKIISVDTADTATYYCSAYFGGKNYWGQGTALTVSS
VL: DIVMTQSPSSLTVTAGEKVTMSCKSSQSLLNSGNQKNYLTWYQQKPGQPPKLLVYWASTRESGVPDRFTGSGSGTDFTLTISTVQAEDLAVYYCQNDYSYPLTFGAGTKLELK
notes: Mouse hybridoma antibody, IgG1, Kappa; Only variable domains are printed
For B2, the binding result in the experiment with human CD70 [2] is on record as “binds”.

B3: 16D7C8 (antibody, IgG3, V domains shown)
VH: QVQLQQSGPELVKPGASVRISCKASGYTFTSFYIHWVKQRPGQGLEWIGWISPINININYNEKFKGKATLTADKSSSTVYMQLSSLTSEDSAVYFCEGTSENFDVWGAGTTVTVSS
VL: DVLMTQIPLSLPVSLGDQASISCRSTQNIVHSNGNTYLEWYLQKPGQSPKLLIYKVSNRFSGVPDRFRGSGSGTEFTLKITRVEADDLGVYYCFQGSHVPFTFGAGTKLELK
notes: Mouse hybridoma antibody, IgG3, Kappa; Only variable domains are printed
For the molecule B3, in the experiment with human CD70 [1], the binding result is listed as “binds”.

B4: 18F8A8 (antibody, IgG1, V domains shown)
VH: QVTLKESGPGILQPSQTLSLTCSFSGFSLSTSNMGVAWIRQPLGKGLEWLLYILWNDTKYYNPALKSRLSISKDTYNNQVFLKIVNVDTADTATYYCARIRRDYALDYWGQGTSVTVSS
VL: DIVMSQSPSSLAVSVGEKVTMNCKSSQSLLYSNNQKNYLAWYQQKPGQSPKLLIYWASTRESGVPDRFTGSGSGTDFTLTISSVKAEDLAVYYCQQYYIYPLAFGGGTKLEIK
notes: as for B2
For B4, the binding result in the experiment with human CD70 [1] was “binds”.

B5: 19H7E4 (antibody, IgG1, V domains shown)
VH: QVTLKESGPGILQPSQTLSLTCSFSGFSLSTSNVGVGWIRQPSGKGLEWLLHILWNDGKYYNPALKSRLTISKDTSTNQVFLKIADVDTADSATYYCARLRRDYGMDYWGQGTSVTVSS
VL: DIVMSQSPSSLAVSVGEKVTMSCKSSQSLLYSYNQKNYLAWYQQKPGQSPKLLIYWASTRESGVPDRFTGSGSGTDFTLTISSVKAEDLAVYYCQQYYTYPYAFGGGTKLEIK
notes: as for B2
As for B5, the binding result with human CD70 [1] is given as “binds”.

B6: 3H11D12E7 (antibody, V domains shown)
VH: QIQLVQSGPELKKPGETVKISCKASGYTFTDYSMHWVKQAPGKGLKWMGWINTETGEPTYADDFKGRFAFSLETSASTAYLQINNLKNDDTATYFCARSFYRYDWYFDVWGAGTTVTVSS
VL: QIVLTQSPAIMSASPGEKVTITCSASSSVSFMHWFQQKPGTSPKLWIYSTSNLASGVPARFSGSGSGTSYSLTISRMEAEDAATYYCQQRTSFPPTFGGGTNLEIK
notes: Mouse IgG1, Kappa; Only variable domains are printed; also called recombinantly expressed 3H11D12E7
In the case of B6, the binding result with human CD70 [3] is recorded as “binds”.
